Source: paper PMC3750045, “Human RNase H1 Is Associated with Protein P32 and Is Involved in Mitochondrial Pre-rRNA Processing” (PLoS ONE, 2013)

B1: GST-P32 fusion protein (natural protein, human, UniProt Q07021 74-282, looked up)
chain: LHTDGDKAFVDFLSDEIKEERKIQKHKTLPKMSGGWELELNGTEAKLVRKVAGEKITVTFNINNSIPPTFDGEEEPSQGQKVEEQEPELTSTPNFVVEVIKNDDGKKALVLDCHYPEDEVGQEDEAESDIFSIREVSFQSTGESEWKDTNYTLNTDSLDWALYDHLMDFLADRGVDNTFADELVELSTALEHQEYITFLEDLKSFVKSQ
B3: N-terminal His-tagged human RNase H1 (recombinant) (enzyme, UniProt O60930 1-286, looked up)
chain: MSWLLFLAHRVALAALPCRRGSRGFGMFYAVRRGRKTGVFLTWNECRAQVDRFPAARFKKFATEDEAWAFVRKSASPEVSEGHENQHGQESEAKASKRLREPLDGDGHESAEPYAKHMKPSVEPAPPVSRDTFSYMGDFVVVYTDGCCSSNGRRRPRAGIGVYWGPGHPLNVGIRLPGRQTNQRAEIHAACKAIEQAKTQNINKLVLYTDSMFTINGITNWVQGWKKNGWKTSAGKEVINKEDFVALERLTQGMDIQWMHVPGHSGFIGNEEADRLAREGAKQSED
notes: human RNase H1, 286 residues (domains printed as aa1-72, aa73-135, aa136-286), in the pET 3C vector; also called His-H1; His-tag RNase H1; source: E. coli BL21 (DE3), lysed in 6 M guanidine, purified (Ni-NTA agarose)

Assays:
[1] = biological target: B3; assay: cell-based or functional assay
His-RNase H1 = biological target: T1, His-RNase H1 (Homo sapiens, UniProt O60930 1-286); assay: EMSA; 2 mM Mg2+, 4 C; EMSA: 20 mM Tris pH 7.0, 20 mM NaCl, 2 mM MgCl2, 5% glycerol, 30 min at 4 C; cleavage buffer (described for IP activity assays; competition conditions by reference): 20 mM Tris pH 7.5, 50 mM NaCl, 2 mM MgCl2, 5 mM 2-mercaptoethanol, 37 C; conditions: protein: recombinant; tags: N-terminal His; label: 32P (5' end)
T1 sequence: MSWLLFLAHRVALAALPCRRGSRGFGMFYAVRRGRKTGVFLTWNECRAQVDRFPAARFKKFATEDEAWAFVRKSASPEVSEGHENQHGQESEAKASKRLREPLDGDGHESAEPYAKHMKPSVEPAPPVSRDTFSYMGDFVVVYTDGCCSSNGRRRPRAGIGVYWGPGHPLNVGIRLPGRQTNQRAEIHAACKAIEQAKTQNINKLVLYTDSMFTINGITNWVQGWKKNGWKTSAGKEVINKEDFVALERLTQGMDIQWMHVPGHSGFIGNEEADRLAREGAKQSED

GST-P32 fusion protein = biological target: B1; assay: pull-down; fixed amount of GST-P32 on GST beads, increasing amounts of RNase H1 (0.025–2.0 µg/400 µl), room temperature 15–20 minutes; glutathione elution; bound RNase H1 and P32 quantified by Western blot against known amounts; conditions: both partners purified

B1
increase in Km of RNase H1 for the RNA/DNA duplex with GST-P32 at H1:P32 ratios of 1:1 and 1:5, against RNase H1 with GST control [1]: ~5 fold | increase in kcat of RNase H1 cleavage of the RNA/DNA duplex with GST-P32, against control RNase H1 [1]: ~2 fold

B2: Duplex B, non-cleavable Apo B 2'-fluoro RNA/DNA heteroduplex (XNA)
RNA: GGAUGGUAGCACAAGUGACA
DNA: TGTCCTTGTGCTACCATCC
modifications: strand 1 uniformly 2'-fluoro RNA; strand 2 DNA
binding result (His-RNase H1): binds

B3
stoichiometry N (GST-P32 fusion protein): ~1.43 molecules of RNase H1 to 1 molecule of P32
